Reference: patent US20250313612A1 (Adimab, published 2025)
Substitutions are numbered along the chain they refer to.

B1: ADI-14524 (antibody, V domains shown)
VH: EVQLVESGGGLVQPGGSLRLSCAASGFSFSDYSMNWVRQAPGKGLEWVSYITPSSRNKFYADSVRGRFTISRDNAENSLYLQMNSLRVEDTAVYYCVRSLHWGAAIERWDVWGQGTTVTVSS
VL: EIVLTQSPGTLSLSPGERATLSCRASQSISSSFFAWYQQTPGQAPRLLMYATSSRATGIPDRFSGSGSGTDFTLTISRVEPEDFAVYYCQQSGSSPYTFGQGTKVEIK
notes: full-length IgG (yeast-expressed); also called Antibody Number 84; Ab# 84
B2: ADI-14450 (antibody, V domains shown)
VH: QVQLVQSGGGLVKPGGSRRLACAASGFIFRNAWMSWVRQAPGKGLEWVGRIKRTSEGGSVDYATPVQGRFSISRDDSRNTLYLQMHSLAPDDTAVYYCSTGPPYSYFDSTGYSVVDYWGQGTLVTVSS
VL: QSVLTQPPSASGTPGQRVTISCSASSSNIGDNYFYWYQQLPGKAPTLLMYGSDQRSSGVPDRFSGSQSGTSASLAISGLRSEDEAAYYCAAWDDSLSGPVFGGGTQLTVL
notes: full-length IgG (yeast-expressed); also called Antibody Number 13; Ab# 13
B3: ADI-14523 (antibody, V domains shown)
VH: B2 VH with Q1E, Q6E, R18L, A21S, H86N, A89E, P90T, T110S
VL: B2 VL with A86D, Q106K
notes: full-length IgG (yeast-expressed); also called Antibody Number 83; Ab# 83
B4: ADI-14446 (antibody, V domains shown)
VH: QVQLVQSGAEVKKPGSSVKVSCEASGDTFTSYAVIWVRQTPGQGLEFMGSIIPIFQTINYAPKFQGRVTLSADGSTSTVFMELRNLRSEDTAIYFCATKRYCTSPSCHGLWYFNLWGRGTMVTVSS
VL: ETTLTQSPISLSVTPGEPASISCRSSKSLLDSDDGNTYLDWYLQKPGQSPQILIYMLSYRASGVPDRFSGSGSGTDFTLKISRVEAEDVGVYYCMQRIEYPYTFGQGTKVEIK
notes: full-length IgG (yeast-expressed); also called Antibody Number 9; Ab# 9
B5: ADI-14513 (antibody, V domains shown)
VH: QVQLVQSGSEVKRPGSSVKVSCKASGVALTTVAVNWVRQVPGQGPEWIGGILIGFGKVRQAQKFENRVTFTADASRNTAYMELSGLRSEDTAVYYCAIIDPQDCTRASCFWVNWLAPWGHGTLVTVSS
VL: DIRVTQSPGTLTLSPGERASLSCRASESILNGNLAWYQQKPGQAPRLLIYAASSRATDIPDRFSGSGSGTDFTLTISRLEPQDFAVYYCQQYGSAPITFGQGTRLEIK
notes: full-length IgG (yeast-expressed); also called Antibody Number 74; Ab# 74
B6: ADI-14445 (antibody, V domains shown)
VH: EVQLLESGAVMKRPGSSVRVSCRASGVTLTTVSVNWVRQVPGQGPEWIGGILIGFGKVRQAQKFENRVTLTADASRNTAYMELSGLTSDDTAVYYCAIIDPQDCTRASCFWVNWLDPWGQGTLVTVSS
VL: B5 VL with V4M, S20T, E27Q, N31S, Y50S, S54T, S77T, G93D
notes: full-length IgG (yeast-expressed); also called Antibody Number 8; Ab# 8
B7: ADI-14449 (antibody, V domains shown)
VH: EVQLVESGGDLVKPGGSLRLSCEGSGFIFPNAWMSWVRQAPGKGLEWVGRIKSNTDGGTTDYGAPVKGRFTISRDDSTNTMYLHMNSLKTEDTAVYFCSTGPPYKYFDETGYSVVDYWGQGTLVTVSS
VL: SYELTQPPSASGTPGQRVIISCSGSTSNSGYNYFYWYQQRPGTAPKLLIYGSDQRPSGVPDRFSGSQSGPSASLAISGLRSEDEAHYYCAAWDDNLSGPVFGGGTKLTVL
notes: full-length IgG (yeast-expressed); also called Antibody Number 12; Ab# 12
B8: ADI-14447 (antibody, V domains shown)
VH: QVQLVQSGAEMKKPGSSVTVSCKASGVPFTSYTYSWVRQAPGQGLEWMGRVLPVIGSAKYPQKFQGTVTITADKSTSTIYLQLSSLRPEDTAIYFCAGSLLAGYDREFDSWGQGTLVTVSS
VL: DIQMTQSPSSLSASVGDRITITCRASQGISNWLAWYQQKPGKAPKSLIYEASTLQSGVSSRFSGSGSGTHFTLTIASLQPEDFATYYCQQYYIYPLTFGGGTKLEIK
notes: full-length IgG (yeast-expressed); also called Antibody Number 10; Ab# 10

What follows are binders tested against RSV F protein of recombinant mKate-RSV, subtype A (strain A2) (Respiratory syncytial virus subtype A …, UniProt P03420 26-574) (assay: cell-based or functional assay).
With B1 the “Neut IC50 subtype A” value was 6.05 mg/L. For B2, the “Neut IC50 subtype A” value was 0.195 mg/L. With B3 the “Neut IC50 subtype A” value was 0.239 mg/L. In the case of B4, the “Neut IC50 subtype A” value is reported as 0.091 mg/L. With B5 the “Neut IC50 subtype A” value was 4.81 mg/L. B6 was tested, and the “Neut IC50 subtype A” value was over 10 mg/L. B7 was tested, and the “Neut IC50 subtype A” value was 0.193 mg/L. In the case of B8, the “Neut IC50 subtype A” value is reported as 0.143 mg/L.

What follows are binders tested against RSV F protein of recombinant mKate-RSV, subtype B (18537) (Respiratory syncytial virus subtype B …, UniProt P13843 26-574) (assay: cell-based or functional assay).
With B1 the “Neut IC50 subtype B” value was 6 mg/L. For B2, the “Neut IC50 subtype B” value was 0.315 mg/L. With B3 the “Neut IC50 subtype B” value was 0.151 mg/L. With B4 the “Neut IC50 subtype B” value was 0.187 mg/L. For B5, the “Neut IC50 subtype B” value was 2.2 mg/L. For B6, the “Neut IC50 subtype B” value was 1.21 mg/L. With B7 the “Neut IC50 subtype B” value was 0.182 mg/L. B8 was tested, and the “Neut IC50 subtype B” value was 0.372 mg/L.

Each binder was assayed against T1, RSV F ectodomain stabilized in the postfusion conformation (F ΔFP), subtype A (Respiratory syncytial virus subtype A, UniProt P03420 26-109; P03420 147-524) (assay: BLI, IgG on AHQ sensor, 100 nM antigen).
T1 construct: extracellular domain; trimer; furin-cleaved; also called Postfusion subtype A
B1 was tested, and the Kd was 0.826 nM. Binder B2 has a Kd of 0.227 nM. Binder B3 has a Kd of 0.192 nM. In the case of B4, the Kd is reported as 0.213 nM. For B5, the Kd was 1.21 nM. B6 showed a Kd of 4.92 nM. With B7 the Kd was 0.204 nM. In the case of B8, the Kd is reported as 0.339 nM.

What follows are binders tested against T2, RSV F ectodomain stabilized in the postfusion conformation (F ΔFP), subtype B (Respiratory syncytial virus subtype B, UniProt P13843 26-109; P13843 147-524) (assay: BLI, IgG on AHQ sensor, 100 nM antigen).
T2 construct: extracellular domain; trimer; also called Postfusion subtype B; postF subtype B
B1 showed a Kd of 0.771 nM. With B2 the Kd was 0.142 nM. B3 was tested, and the Kd was 0.131 nM. Work on B4 yielded a Kd of 0.137 nM. In the case of B5, the Kd is reported as 0.962 nM. In the case of B6, the Kd is reported as 15.2 nM. B7 gave a Kd of 0.462 nM. With B8 the Kd was 0.271 nM.
